Target: 6xHis-hSTAT3_(136-705) (human) (UniProt P40763)
Assay: ITC

Chain of UniProt P40763 (P40763 136-705): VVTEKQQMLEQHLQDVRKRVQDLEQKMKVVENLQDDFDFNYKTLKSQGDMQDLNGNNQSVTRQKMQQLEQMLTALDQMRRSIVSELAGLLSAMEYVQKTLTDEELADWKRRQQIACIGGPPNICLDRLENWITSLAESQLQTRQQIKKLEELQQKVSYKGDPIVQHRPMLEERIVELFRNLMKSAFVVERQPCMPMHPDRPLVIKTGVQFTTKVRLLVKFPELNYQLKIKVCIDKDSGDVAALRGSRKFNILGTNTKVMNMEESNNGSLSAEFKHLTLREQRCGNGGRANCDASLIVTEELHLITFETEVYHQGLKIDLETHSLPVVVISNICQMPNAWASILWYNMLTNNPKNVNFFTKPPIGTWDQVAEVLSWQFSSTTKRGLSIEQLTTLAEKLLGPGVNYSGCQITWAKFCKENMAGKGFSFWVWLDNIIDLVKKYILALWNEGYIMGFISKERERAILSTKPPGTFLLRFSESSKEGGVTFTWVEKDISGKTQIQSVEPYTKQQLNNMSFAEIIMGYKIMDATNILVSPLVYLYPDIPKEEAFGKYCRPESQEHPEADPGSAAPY

Substance | Kd
SarA phospho-peptide (ten residues spanning the YxxQ motif, phosphorylated at Y167) | 143 nM
gp130 phosphopeptide containing YxxQ (phosphorylated at Y767) | 2290 nM
